Laboratory results as given in paper PMC4142144.

Biological target: 2CARD^RIG-I(E52A)-CARD^MAVS(KKK) fusion protein, 16 aa linker (human) (UniProt O95786)
Assay: SEC-MALS

## 2CARD^RIG-I(E52A)-CARD^MAVS(KKK) fusion protein, 16 aa linker (from UniProt O95786 1-188; Q7Z434 1-97)
  stoichiometry N: 4
